Reference: US20240189352A1 (published 2024)

Columns and labels:
Assay in all cases: cytokine release
[1] = molecular target: T1, RAC2 P29L peptide on HLA-A*02:01 (human)
T1 peptide: FLGEYIPTV

[2] = molecular target: T2, RAC2 P29L, position 6 replaced by alanine peptide on HLA-A*02:01 (human)
T2 peptide: FLGEYAPTV

[3] = molecular target: T3, RAC1 P29S peptide on HLA-A*02:01 (human)
T3 peptide: FSGEYIPTV

[4] = molecular target: T4, RAC2 P29L, position 1 replaced by alanine peptide on HLA-A*02:01 (human)
T4 peptide: ALGEYIPTV

[5] = molecular target: T5, RAC2 P29L, position 2 replaced by alanine peptide on HLA-A*02:01 (human)
T5 peptide: FAGEYIPTV

[6] = molecular target: T6, RAC2 P29L, position 3 replaced by alanine peptide on HLA-A*02:01 (human)
T6 peptide: FLAEYIPTV

[7] = molecular target: T7, RAC2 P29L, position 4 replaced by alanine peptide on HLA-A*02:01 (human)
T7 peptide: FLGAYIPTV

Measured: binding result

B1: RAC2-T002 (TCR, V domains shown)
Valpha: AQSVTQLGSHVSVSEGALVLLRCNYSSSVPPYLFWYVQYPNQGLQLLLKYTTGATLVKGINGFEAEFKKSETSFHLTKPSAHMSDAAEYFCAVGANNLFFGTGTRLTVIP
Vbeta: EPEVTQTPSHQVTQMGQEVILRCVPISNHLYFYWYRQILGQKVEFLVSFYNNEISEKSEIFDDQFSVERPDGSNFTLKIRSTKLEDSAMYFCASSEWRGSSYNEQFFGPGTRLTVL
not listed: [7]
recognises: all other assays above

B2: RAC2-T001 (TCR, V domains shown)
Valpha: GENVEQHPSTLSVQEGDSAVIKCTYSDSASNYFPWYKQELGKGPQLIIDIRSNVGEKKDQRIAVTLNKTAKHFSLHITETQPEDSAVYFCAASMGNAGNMLTFGGGTRLMVKP
Vbeta: EPEVTQTPSHQVTQMGQEVILRCVPISNHLYFYWYRQILGQKVEFLVSFYNNEISEKSEIFDDQFSVERPDGSNFTLKIRSTKLEDSAMYFCASSETSGASYEQYFGPGTRLTVT
not listed: [2]
recognises: all other assays above
